US20250215072A1 (published 2025)
Read-outs that look alike come from different tables or passages of the source.

B1: Ab6 (antibody, V domains shown)
VH: EVQLVESGGGLVQPGGSLRLSCTASGFTFSSFSMDWVRQAPGKGLEWVSYISPSADTIYYADSVKGRFTISRDNAKNTLYLQMNSLRAEDTAVYYCARGVLDYGDMLMPWGQGTLVTVSS
VL: DIQMTQSPSSLSASVGDRVTITCQASQDITNYLNWYQQKPGKAPKLLIYDASNLETGVPSRFSGSGSGTDFTFTISSLQPEDIATYYCQQADNHPPWTFGGGTKVEIKR
B2: Ab4 (antibody, IgG4, V domains shown)
VH: EVQLVESGGGLVQPGGSLRLSCAASGFTFSSYSMNWVRQAPGKGLEWVSYISSSSSTIYYADSVKGRFTISRDNAKNSLYLQMNSLRAEDTAVYYCARGVLDYGDMLDPWGQGTLVTVSS
VL: DIQMTQSPSSLSASVGDRVTITCQASQDITNYLNWYQQKPGKAPKLLIYDASNLETGVPSRFSGSGSGTDFTFTISSLQPEDIATYYCQQADNHPPWTFGGGTKVEIK
notes: parent of Ab6

Assays:
[1] = target: hLRRC33-proTGFβ1 presented on cells (human, UniProt P01137 30-390; Q86YC3 19-692); assay: cell-based or functional assay
Chain of hLRRC33-proTGFβ1 presented on cells (P01137 30-390 limits assumed, chain 1 of 2): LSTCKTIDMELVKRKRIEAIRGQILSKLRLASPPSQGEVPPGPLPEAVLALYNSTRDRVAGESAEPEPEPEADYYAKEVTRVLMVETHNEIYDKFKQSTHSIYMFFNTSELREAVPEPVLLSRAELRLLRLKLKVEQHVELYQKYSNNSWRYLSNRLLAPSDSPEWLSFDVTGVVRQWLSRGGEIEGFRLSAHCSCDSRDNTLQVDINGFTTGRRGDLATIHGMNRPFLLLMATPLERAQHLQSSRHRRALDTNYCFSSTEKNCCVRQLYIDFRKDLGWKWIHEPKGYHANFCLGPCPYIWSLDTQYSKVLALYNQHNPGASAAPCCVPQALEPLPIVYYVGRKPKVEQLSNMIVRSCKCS
Chain of hLRRC33-proTGFβ1 presented on cells (Q86YC3 19-692 limits assumed, chain 2 of 2): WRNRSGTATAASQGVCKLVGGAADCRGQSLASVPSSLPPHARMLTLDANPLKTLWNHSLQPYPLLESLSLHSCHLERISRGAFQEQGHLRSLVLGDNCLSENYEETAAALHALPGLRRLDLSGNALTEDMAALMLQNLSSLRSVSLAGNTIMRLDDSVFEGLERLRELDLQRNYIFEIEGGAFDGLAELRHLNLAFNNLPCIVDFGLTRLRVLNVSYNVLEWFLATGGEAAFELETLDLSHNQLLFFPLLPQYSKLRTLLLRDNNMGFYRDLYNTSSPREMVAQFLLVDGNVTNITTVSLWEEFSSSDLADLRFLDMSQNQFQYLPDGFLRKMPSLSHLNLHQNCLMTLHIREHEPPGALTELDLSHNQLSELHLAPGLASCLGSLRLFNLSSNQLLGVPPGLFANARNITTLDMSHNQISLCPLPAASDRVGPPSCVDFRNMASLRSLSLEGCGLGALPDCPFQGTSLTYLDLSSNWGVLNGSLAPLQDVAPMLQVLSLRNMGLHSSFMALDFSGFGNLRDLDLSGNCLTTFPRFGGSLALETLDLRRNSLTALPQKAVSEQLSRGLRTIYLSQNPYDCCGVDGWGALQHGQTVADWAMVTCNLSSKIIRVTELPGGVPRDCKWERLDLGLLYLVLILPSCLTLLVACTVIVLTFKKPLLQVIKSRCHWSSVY

[2] = target: hGARP-proTGFβ1 presented on cells (human, UniProt P01137 30-390; Q14392 20-662); assay: cell-based or functional assay
[3] = target: hLTBP1-proTGFβ1 as produced in the cell-based activation assay (human, UniProt P01137 30-390; Q14766 347-1721); assay: cell-based or functional assay
[4] = target: hLTBP3-proTGFβ1 as produced in the cell-based activation assay (human, UniProt P01137 30-390; Q9NS15 44-1303); assay: cell-based or functional assay
Chain of hLTBP3-proTGFβ1 as produced in the cell-based activation assay (P01137 30-390 limits assumed, chain 1 of 2): as the sequence (P01137 30-390 limits assumed, chain 1 of 2) above
Chain of hLTBP3-proTGFβ1 as produced in the cell-based activation assay (Q9NS15 44-1303 limits assumed, chain 2 of 2): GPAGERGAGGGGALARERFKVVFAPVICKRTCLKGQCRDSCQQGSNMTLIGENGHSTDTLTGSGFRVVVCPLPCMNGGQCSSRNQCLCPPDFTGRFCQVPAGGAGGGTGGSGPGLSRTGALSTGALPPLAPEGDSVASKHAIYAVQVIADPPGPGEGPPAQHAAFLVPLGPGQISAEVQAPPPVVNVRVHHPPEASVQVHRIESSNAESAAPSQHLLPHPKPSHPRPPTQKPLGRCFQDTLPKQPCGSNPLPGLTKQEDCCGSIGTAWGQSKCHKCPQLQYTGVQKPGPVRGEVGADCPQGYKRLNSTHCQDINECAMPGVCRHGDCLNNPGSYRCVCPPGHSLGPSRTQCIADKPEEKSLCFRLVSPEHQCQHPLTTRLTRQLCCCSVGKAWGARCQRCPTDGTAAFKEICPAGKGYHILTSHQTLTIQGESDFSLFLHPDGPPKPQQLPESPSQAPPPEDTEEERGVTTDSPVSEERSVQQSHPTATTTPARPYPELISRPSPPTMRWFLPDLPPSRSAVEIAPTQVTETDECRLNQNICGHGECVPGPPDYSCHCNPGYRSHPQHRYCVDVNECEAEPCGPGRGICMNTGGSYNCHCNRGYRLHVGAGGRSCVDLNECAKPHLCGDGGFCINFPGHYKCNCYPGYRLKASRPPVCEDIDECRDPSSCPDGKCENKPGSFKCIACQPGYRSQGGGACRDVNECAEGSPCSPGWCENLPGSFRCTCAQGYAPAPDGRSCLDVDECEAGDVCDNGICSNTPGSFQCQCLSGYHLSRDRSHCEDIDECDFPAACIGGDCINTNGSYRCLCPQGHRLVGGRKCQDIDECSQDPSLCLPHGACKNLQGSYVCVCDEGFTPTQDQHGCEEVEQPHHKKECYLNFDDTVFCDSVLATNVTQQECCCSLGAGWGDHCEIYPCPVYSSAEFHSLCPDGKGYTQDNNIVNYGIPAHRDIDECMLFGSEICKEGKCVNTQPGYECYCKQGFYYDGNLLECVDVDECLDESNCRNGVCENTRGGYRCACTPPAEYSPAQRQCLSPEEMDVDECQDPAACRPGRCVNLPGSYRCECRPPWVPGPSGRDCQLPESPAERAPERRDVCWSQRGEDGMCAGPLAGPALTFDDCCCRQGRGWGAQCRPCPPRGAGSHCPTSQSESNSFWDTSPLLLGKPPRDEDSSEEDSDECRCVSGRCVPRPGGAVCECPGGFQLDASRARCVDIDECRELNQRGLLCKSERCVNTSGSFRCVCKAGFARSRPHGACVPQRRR

[5] = target: T1, human GARP-proTGFβ1 complex (human, UniProt P01137 30-390; Q14392 20-627); assay: MSD-SET
T1 construct: also called hGARP-proTGFβ1; hGARP
T1 sequence (P01137 30-390, chain 1 of 2): as the sequence (P01137 30-390 limits assumed, chain 1 of 2) above
T1 sequence (Q14392 20-627, chain 2 of 2): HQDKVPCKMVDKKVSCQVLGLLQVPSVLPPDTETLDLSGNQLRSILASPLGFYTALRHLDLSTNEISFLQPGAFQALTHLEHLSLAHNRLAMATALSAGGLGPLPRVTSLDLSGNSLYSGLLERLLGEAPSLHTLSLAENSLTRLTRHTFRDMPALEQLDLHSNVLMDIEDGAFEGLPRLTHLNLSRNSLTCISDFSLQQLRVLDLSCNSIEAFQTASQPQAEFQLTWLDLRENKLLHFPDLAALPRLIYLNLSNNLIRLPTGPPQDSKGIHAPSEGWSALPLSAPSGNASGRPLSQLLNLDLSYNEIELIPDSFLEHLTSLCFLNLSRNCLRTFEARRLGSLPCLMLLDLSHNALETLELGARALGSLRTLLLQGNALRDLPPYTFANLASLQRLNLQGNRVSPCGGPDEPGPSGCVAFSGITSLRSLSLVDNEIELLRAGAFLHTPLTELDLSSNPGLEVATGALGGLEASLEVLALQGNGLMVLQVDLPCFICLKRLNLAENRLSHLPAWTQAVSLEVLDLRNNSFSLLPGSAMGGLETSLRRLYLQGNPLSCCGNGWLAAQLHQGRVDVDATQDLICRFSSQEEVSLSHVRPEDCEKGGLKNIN
Procedure: (§1) MSD-SET assays were performed to measure affinities of the antibodies at equilibrium. Briefly, each test antibody was diluted 3-5 fold and samples were mixed with biotinylated antigen in a 48-well dish. The SET samples were equilibrated for 20-24 hours at room temperature. Meanwhile, a capture plate was coated with IgG (20 nM) and incubated overnight at 4° C. or 30 minutes at room temperature, followed by a blocking step with 5% BSA. After the capture plate was washed three times, SET samples were added and incubated for 150 seconds. The plate was washed once to remove unbound complexes. 250 ng/ml SA-Sulfotag was added then washed 3 times. 2× Read Buffer was added, and signals from the labeled bound complexes were read with the use of QuickPlex™ SQ 120 instrument.
(§2) As an example, MSD standard plates (MSD) were coated with a 20 nM solution of monoclonal antibody in PBS for 30 min at room temperature or overnight at 4° C. […] After 20-24 hours of equilibration, the antibody-coated plate was blocked with Blocking Buffer A (MSD) for 30 minutes at room temperature and washed with wash buffer (PBS, 0.1% BSA, 0.05% Tween-20) before adding the equilibrated antibody-antigen complexes to the plate for exactly 2.5 minutes. The plate was washed again with wash buffer before adding 250 ng/ml SULFO-TAG-labeled streptavidin secondary reagent (MSD) in PBS with 0.1% BSA. After washing with wash buffer, plates were read in MSD read buffer (MSD) using the MESO QuickPlex SQ 120 (MSD). The binding data were processed by nonlinear curve fitting in Prism 7 software (Graphpad) to calculate equilibrium binding KD values.

[6] = target: T2, murine LTBP1-proTGFβ1 complex (mouse, UniProt P04202 30-390; Q8CG19 339-1712, limits assumed); assay: MSD-SET
T2 construct: also called mLTBP1-proTGFβ1
Procedure: as §1, §2

[7] = target: T3, human LRRC33-proTGFβ1 complex (human, UniProt P01137 30-390; Q86YC3 19-650); assay: MSD-SET
T3 construct: also called hLRRC33-proTGFβ1; hLRRC33
T3 sequence (P01137 30-390 limits assumed, chain 1 of 2): as the sequence (P01137 30-390 limits assumed, chain 1 of 2) above
T3 sequence (Q86YC3 other isoform, or with tags, fused parts or gaps limits assumed, chain 2 of 2): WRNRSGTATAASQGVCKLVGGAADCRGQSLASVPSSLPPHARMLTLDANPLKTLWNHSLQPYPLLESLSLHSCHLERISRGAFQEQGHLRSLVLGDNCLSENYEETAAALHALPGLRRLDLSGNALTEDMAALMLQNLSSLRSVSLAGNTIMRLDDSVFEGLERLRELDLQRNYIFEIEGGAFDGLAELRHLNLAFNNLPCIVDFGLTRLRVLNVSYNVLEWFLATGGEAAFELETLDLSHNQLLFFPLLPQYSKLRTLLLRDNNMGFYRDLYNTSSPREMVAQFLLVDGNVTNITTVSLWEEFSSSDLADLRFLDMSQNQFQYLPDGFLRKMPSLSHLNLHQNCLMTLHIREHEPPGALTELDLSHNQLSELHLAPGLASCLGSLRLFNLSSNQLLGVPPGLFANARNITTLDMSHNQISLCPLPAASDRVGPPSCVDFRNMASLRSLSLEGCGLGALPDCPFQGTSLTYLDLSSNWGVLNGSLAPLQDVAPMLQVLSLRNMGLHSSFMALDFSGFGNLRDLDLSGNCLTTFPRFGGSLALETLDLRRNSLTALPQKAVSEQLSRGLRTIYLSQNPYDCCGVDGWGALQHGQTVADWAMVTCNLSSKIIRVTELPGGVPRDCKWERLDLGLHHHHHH
Procedure: as §1, §2

[8] = target: T4, murine GARP-proTGFβ1 complex (mouse, UniProt P04202 30-390; G3XA59 18-628); assay: MSD-SET
T4 construct: Soluble murine complex; also called mGARP-proTGFβ1
T4 sequence (P04202 30-390, chain 1 of 2): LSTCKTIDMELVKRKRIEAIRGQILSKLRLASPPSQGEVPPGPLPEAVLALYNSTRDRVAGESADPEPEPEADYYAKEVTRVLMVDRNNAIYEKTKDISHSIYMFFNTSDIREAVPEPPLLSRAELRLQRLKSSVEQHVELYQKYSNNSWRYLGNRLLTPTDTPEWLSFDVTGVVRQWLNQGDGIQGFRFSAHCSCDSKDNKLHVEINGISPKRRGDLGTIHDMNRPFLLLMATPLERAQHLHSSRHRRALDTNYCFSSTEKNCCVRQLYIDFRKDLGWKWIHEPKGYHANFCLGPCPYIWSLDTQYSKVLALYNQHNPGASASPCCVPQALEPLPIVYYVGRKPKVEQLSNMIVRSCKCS
T4 sequence (G3XA59 18-628, chain 2 of 2): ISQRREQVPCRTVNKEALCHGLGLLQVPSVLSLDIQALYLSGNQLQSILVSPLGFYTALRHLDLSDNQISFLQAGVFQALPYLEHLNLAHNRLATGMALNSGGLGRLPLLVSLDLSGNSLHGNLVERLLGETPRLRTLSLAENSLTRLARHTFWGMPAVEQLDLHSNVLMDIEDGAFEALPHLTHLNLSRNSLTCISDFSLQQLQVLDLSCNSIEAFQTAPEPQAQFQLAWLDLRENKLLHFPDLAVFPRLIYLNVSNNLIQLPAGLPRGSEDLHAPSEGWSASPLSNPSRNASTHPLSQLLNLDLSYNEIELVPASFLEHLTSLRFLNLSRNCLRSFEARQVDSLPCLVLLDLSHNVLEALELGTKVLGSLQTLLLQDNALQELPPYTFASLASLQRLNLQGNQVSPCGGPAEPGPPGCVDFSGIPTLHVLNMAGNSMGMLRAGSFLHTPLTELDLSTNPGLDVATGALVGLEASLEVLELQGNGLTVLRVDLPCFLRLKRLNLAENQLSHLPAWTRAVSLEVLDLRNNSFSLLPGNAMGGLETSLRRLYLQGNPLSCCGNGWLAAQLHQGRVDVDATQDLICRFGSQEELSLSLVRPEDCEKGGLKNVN
Procedure: as §1, §2

[9] = target: T1, human GARP-proTGFβ1 complex; assay: MSD-SET; remark: listed apart in the source
Procedure: as §2

[10] = target: T2, murine LTBP1-proTGFβ1 complex; assay: MSD-SET; remark: listed apart in the source
Procedure: as §2

[11] = target: T3, human LRRC33-proTGFβ1 complex; assay: MSD-SET; remark: listed apart in the source
Procedure: as §2

[12] = target: rat LRRC33-proTGFβ1 complex (rat, UniProt P17246 30-390; Q5BK65 25-650); assay: MSD-SET
Procedure: as §2

[13] = target: T4, murine GARP-proTGFβ1 complex; assay: MSD-SET; remark: listed apart in the source
Procedure: as §2

[14] = target: rat LTBP1-proTGFβ1 complex (rat, UniProt P17246 30-390; Q00918 339-1712); assay: MSD-SET
Procedure: as §2

[15] = target: T1, human GARP-proTGFβ1 complex; assay: BLI (Octet)
Procedure: (§3) The affinity of anti-TGFβ1 antibodies was measured by Octet@ assay on human proTGFβ1 cells, while activity was measured by CAGA12 reporter cells testing human proTGFβ1 inhibition.

[16] = target: T3, human LRRC33-proTGFβ1 complex; assay: BLI (Octet)
Procedure: as §3

[17] = target: T1, human GARP-proTGFβ1 complex; assay: MSD-SET, hIgG4
Procedure: as §1

[18] = target: T3, human LRRC33-proTGFβ1 complex; assay: MSD-SET, hIgG4
Procedure: as §1

[19] = target: T4, murine GARP-proTGFβ1 complex; assay: BLI screen of library antibodies

| Binder | IC50, reporter cell assay [1] [nM] | IC50, reporter cell assay [2] [nM] | IC50, reporter cell assay [3] [nM] | IC50, reporter cell assay [4] [nM] | Kd [5] [nM] | Kd [6] [nM] | Kd [7] [nM] | Kd [8] [nM] | Kd [9] [nM] | Kd [10] [nM] | Kd [11] [nM] | Kd [12] [nM] | Kd [13] [nM] | Kd [14] [nM] | Kd [15] [nM] | Kd [16] [nM] | Kd [17] [nM] | Kd [18] [nM] | binding result [19] |
| --- | --- | --- | --- | --- | --- | --- | --- | --- | --- | --- | --- | --- | --- | --- | --- | --- | --- | --- | --- |
| B1 | 0.495 | 0.324 | 2.74 | 0.821 | 0.027 | 0.024 | 0.063 | 0.021 | 0.027 | 0.024 | 0.063 | 0.086 | 0.021 | 0.035 | 0.404 | 0.336 | 0.027 | 0.063 | – |
| B2 | 3.5 | 0.822 | 5.22 | 5.65 | – | – | – | – | – | – | – | – | – | – | – | – | 2.5 | 2.1 | binds |
